Reference: PMC5458466, “DNA‐induced unfolding of the thyroid hormone receptor α A/B domain through allostery”

Molecular target: T1, TRα (A/B + DBD) (chicken, UniProt P04625 1-154)
T1 sequence: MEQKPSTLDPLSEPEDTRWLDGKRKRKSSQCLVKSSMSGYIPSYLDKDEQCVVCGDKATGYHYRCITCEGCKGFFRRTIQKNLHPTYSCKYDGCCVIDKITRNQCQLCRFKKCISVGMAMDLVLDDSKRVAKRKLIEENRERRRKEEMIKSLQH
Experiment: intrinsic Trp fluorescence quenching; room temperature, 2 uM protein, 5 mM Mg2+; average Kd, two-site fit; 50 mM HEPES pH 7.5, 125 mM NaCl, 5 mM MgCl2, 1 mM TCEP; ITC 25 C, fluorescence room temperature
Details: protein: recombinant; tags: 6xHis (pET15b); chain copies: 2; blunt; 19-mer complementary strands annealed

B1: DR4 TRE (dsDNA)
DNA 1: CCAGGTCATTTCAGGTCAG
DNA 2: CTGACCTGAAATGACCTGG
B1 showed a Kd of 2690 ± 220 nM.
